In experiment [1] the target is T1, biotin-labeled human PD-1 Fc protein (human, biotin-labeled (site not stated)).
T1 construct: also called PD-1-Fc-biotin
Briefly: capture ELISA, antibody captured on plate, biotin-labeled human PD-1 Fc in solution. The method, then: (§1) Plates were washed 4 times with wash buffer (PBS+0.05% Tween-20, PBST) and then blocked with 200 μl/well blocking buffer (5% w/v non-fatty milk in PBST) for 2 hours at 37° C. […] After a final wash, plates were incubated with 100 μl/well ELISA substrate TMB (Innoreagents). The reaction was stopped in 15 minutes at 25° C. with 50 μl/well 1M H₂SO₄, and the absorbance was read at 450 nm. Data were analyzed using Graphpad Prism software and EC₅₀ values were reported.

In experiment [2] the target is T1, biotin-labeled human PD-1 Fc protein. Described as above. The method, then: as §1
This is another data set of the same source.

The target is the same in experiment [3]. The description is as above. The method, then: as §1
This is another data set of the same source.

Experiment [4] has the same target. The experiment is described as follows: competition ELISA, antibody + biotin human PD-1-Fc on coated human PD-L1-Fc (competitor PD-L1-Fc). The method, then: (§2) The next day, plates were washed with wash buffer (PBS+0.05% Tween-20, PBST), and blocked with 5% non-fatty milk in PBST for 2 hours at 37° C. Plates were then washed again using wash buffer.
(§3) After incubation at 37° C. for 40 minutes, plates were washed for 4 times using wash buffer. […] Plates were washed again using wash buffer. Finally, TMB was added and the reaction was stopped using 1M H₂SO₄, and the absorbance was read at 450 nm. Data were analyzed using Graphpad Prism software and IC₅₀ values were reported.
On the technique in general: In an ELISA, binding on a coated surface is turned into a signal by an enzyme label.

Experiment [5] shares this target. Briefly: competition ELISA, antibody + biotin human PD-1 Fc on coated Nivolumab (competitor Nivolumab). Here is the method:
(§4) The next day, plates were washed with wash buffer, and blocked with 5% non-fatty milk in PBST for 2 hours at 37° C. […] Plates were finally washed using wash buffer. TMB was added and the reaction was stopped using 1M H₂SO₄, and the absorbance was read at 450 nm. Data were analyzed using Graphpad Prism software and IC₅₀ values were reported.

The target in experiment [6] is T2, recombinant human PD-1-his (Sino biological, #10377-H08H) (human, UniProt Q15116 25-167).
T2 construct: Bought protein; also called Human PD-1-his protein; not shown: his tag
Briefly: SPR (Biacore), antibody captured, human PD-1-his flowed. An excerpt: (§5) Briefly, goat anti-mouse IgG (GE healthcare, Cat #BR100839, Human Antibody Capture Kit) was covalently linked to a CMS chip (carboxy methyl dextran coated chip) via primary amines, using a standard amine coupling kit (GE healthcare, Pittsburgh, Pa., USA) provided by Biacore. Un-reacted moieties on the biosensor surface were blocked with ethanolamine. […] Then, recombinant human PD-1-his (Sino biological, #10377-H08H) or cynomolgus monkey PD-1-his protein (Acro biosystems, #PD-1-05223) in HBS EP buffer (provided by Biacore) was flowed onto the chip at a flow rate of 30 μL/min. The antigen-antibody association kinetics was followed for 2 minutes and the dissociation kinetics was followed for 10 minutes. The association and dissociation curves were fit to a 1:1 Langmuir binding model using BIA evaluation software.
In general terms: In SPR one partner is held on a chip, and binding of the other changes the refractive index at the surface.

Experiment [7] concerns the target T3, cynomolgus monkey PD-1-his protein (Acro biosystems, #PD-1-05223) (cynomolgus monkey, UniProt B0LAJ3 25-170).
T3 construct: Bought protein; also called Cynomolgus PD-1; Cynomolgus PD1
Briefly: SPR (Biacore), antibody captured, cynomolgus PD-1-his flowed.
Text: as §5

Experiment [8] concerns the target T4, human PD-1 on PD-1 Effector Cell Line (Genscript, GS-J2/PD-1) (human, UniProt Q15116 25-288). Briefly: cell-based or functional assay.
In experiment [9] the target is T1, biotin-labeled human PD-1 Fc protein. The experiment is described as follows: capture ELISA, antibody captured on plate, biotin-labeled human PD-1 Fc in solution. Here is the method: as §1
This is another data set of the same source.

Experiment [10] shares this target. The description is as above. Here is the method:
as §1
The source holds these as a separate data set.

Experiment [11] shares this target. Described as above. The method, then: as §1
The source holds these as a separate data set.

The target is the same in experiment [12]. Briefly: competition ELISA, antibody + biotin human PD-1-Fc on coated human PD-L1-Fc (competitor PD-L1-Fc). The method, then:
as §2, §3
This is another data set of the same source.

Experiment [13] concerns the target T4, human PD-1 on PD-1 Effector Cell Line …. Briefly: cell-based or functional assay. The source holds these as a separate data set.
Experiment [14] addresses T1, biotin-labeled human PD-1 Fc protein. The experiment is described as follows: competition ELISA, antibody + biotin human PD-1 Fc on coated Nivolumab (competitor Nivolumab). Here is the method:
as §4
This is another data set of the same source.

Experiment [15] has the same target. The experiment is described as follows: capture ELISA, antibody captured on plate, biotin-labeled human PD-1 Fc in solution. Here is the method: as §1
The source holds these as a separate data set.

Twelve molecules from patent US20210095032A1 (SALUBRIS CHENGDU BIOTECH, published 2021) can be followed below.

Where two headings read alike, the source gives them in different places.

A word on the EC50: it is the concentration at which the effect is half-maximal. By IC50 is commonly meant the concentration needed to halve the response being measured. Broadly, the Kd is the equilibrium constant for the complex coming apart.

B1: huD2A4-V1 (antibody, human IgG1, kappa)
heavy: not shown
light: DIQMTQSPSSVSASVGDRVTITCLASQTIGTWLAWYQQKPGKSPKLLIYAATSLADGVPSRFSGSGSGTDFTLTISSLQPEDFATYYCQQVSSIPWTFGGGTKVEIKRTVAAPSVFIFPPSDEQLKSGTASVVCLLNNFYPREAKVQWKVDNALQSGNSQESVTEQDSKDSTYSLSSTLTLSKADYEKHKVYACEVTHQGLSSPVTKSFNRGEC
notes: Humanized D2A4, human IgG1/kappa
Molecule B1 came in with a 50% effective concentration (EC50) in [1] of 0.385 ng/mL.

B2: huD2A4-V3 (antibody, human IgG1, kappa)
heavy: not shown
light: DIQMTQSPSSVSASVGDRVTITCLASQTIGTWLAWYQQKPGKSPKLLIYAATSLADGVPSRFSGSGSGTDFTLTISSLQPEDFATYYCQQVSSIPWTFGGGTKVEIKRTVAAPSVFIFPPSDEQLKSGTASVVCLLNNFYPREAKVQWKVDNALQSGNSQESVTEQDSKDSTYSLSSTLTLSKADYEKHKVYACEVTHQGLSSPVTKSFNRGEC
notes: as for B1
Consider B2, for which, in experiment [1], the midpoint of the response, the EC50, lay at 0.55 ng/mL.

B3: huD2A4-V5 (antibody, human IgG1, kappa)
heavy: not shown
light: DIQMTQSPSSVSASVGDRVTITCLASQTIGTWLAWYQQKPGKSPKLLIYAATSLADGVPSRFSGSGSGTDFTLTISSLQPEDFATYYCQQVSSIPWTFGGGTKVEIKRTVAAPSVFIFPPSDEQLKSGTASVVCLLNNFYPREAKVQWKVDNALQSGNSQESVTEQDSKDSTYSLSSTLTLSKADYEKHKVYACEVTHQGLSSPVTKSFNRGEC
notes: as for B1
In experiment [2], B3 showed an EC50 of 0.773 ng/mL.

B4: huD2A4-V4 (antibody, human IgG1, kappa, V domains shown)
VH: EVQLVESGGGLVQPGGSLRLSCAASGFTFSSYTMSWVRQAPGKGLEWVATISGGGSNTYYPDSVKGRFTISRDNSKNTLYLQMNSLRAEDTAVYYCARQAFYSNYWYFDVWGAGTTVTVSS
VL: DIQMTQSPSSVSASVGDRVTITCLASQTIGTWLAWYQQKPGKAPKLLIYAATSLADGVPSRFSGSGSGTDFTLTISSLQPEDFATYYCQQVSSIPWTFGGGTKVEIKR
notes: as for B1
On to B4, for which a half-maximal response in [1] (EC50) required 0.349 ng/mL.

B5: huD2A4-V6 (antibody, human IgG1, kappa, V domains shown)
VH: EVQLVESGGGLVQPGGSLRLSCAASGFTFSSYTMSWVRQAPGKGLEWVSTISGGGSNTYYPDSVKGRFTISRDNSKNTLYLQMNSLRAEDTAVYYCARQAFYSNYWYFDVWGKGTTVTVSS
VL: DIQMTQSPSSVSASVGDRVTITCLASQTIGTWLAWYQQKPGKAPKLLIYAATSLADGVPSRFSGSGSGTDFTLTISSLQPEDFATYYCQQVSSIPWTFGGGTKVEIKR
notes: as for B1
For B5, the results for the EC50 in experiment [3] and in experiment [2] were 0.27 nM and 0.999 ng/mL, respectively. Besides, the 50% inhibitory concentration (IC50) in [4] was found to be 1.69 nM; in [5] it was 0.49 nM. Further, the Kd in experiment [6] was 3.06 nM; in experiment [7] it was 6.43 nM. In [8], the “Cell-based functional assay (EC50, nM)” value amounted to 7.6 nM.

B6: huD2A4-V2 (antibody, human IgG1, kappa)
heavy: not shown
light: DIQMTQSPSSVSASVGDRVTITCLASQTIGTWLAWYQQKPGKSPKLLIYAATSLADGVPSRFSGSGSGTDFTLTISSLQPEDFATYYCQQVSSIPWTFGGGTKVEIKRTVAAPSVFIFPPSDEQLKSGTASVVCLLNNFYPREAKVQWKVDNALQSGNSQESVTEQDSKDSTYSLSSTLTLSKADYEKHKVYACEVTHQGLSSPVTKSFNRGEC
notes: as for B1
As to B6, the half-maximal effective concentration (EC50) in [1] came out at 0.379 ng/mL.

B7: huD2H3-V9 (antibody, human IgG1, kappa, V domains shown)
VH: EVQLVQSGAEVKKPGSSVKVSCKSSGYTFTNYWMHWVRQAPGQGLEWIGAIFPRNSETNYNQKFKARATLTADTSTSTAYMELSSLRSEDTAVYFCTRNRYGLDYWGQGTLVTVSS
VL: DIVLTQSPDSLAVSLGERATINCRASESVSLHGTRLMHWYQQKPGQPPKLLIYLGSNLESGVPDRFSGSGSETDFTLTISSLQAEDVAVYFCQQSIEDPWTFGQGTKLEIKR
notes: Humanized D2H3, human IgG1/kappa
For the molecule B7, the EC50 in experiment [9] came to 0.358 ng/mL.

B8: huD2H3-V14 (antibody, human IgG1, kappa, V domains shown)
VH: EVQLVQSGAEVKKPGSSVKVSCKASGYTFTNYWMHWVRQAPGQGLEWMGAIFPRNSETNYNQKFKARVTITADESTSTAYMELSSLRSEDTAVYYCTRNRYGLDYWGQGTLVTVSS
VL: DIVMTQSPDSLAVSLGERATINCRASESVSLHGTRLMHWYQQKPGQPPKLLIYLGSNLESGVPDRFSGSGSGTDFTLTISSLQAEDVAVYYCQQSIEDPWTFGQGTKLEIKR
notes: as for B7
On to B8, for which the concentration giving a half-maximal response (EC50) in experiment [10] worked out at 0.531 ng/mL; in [3], 0.17 nM. Besides, the IC50 came out at 0.68 nM in experiment [4] and 0.18 nM in experiment [5]. Moreover, the Kd in experiment [6] was 0.308 nM; in experiment [7], 1.5 nM. The “Cell-based functional assay (EC50, nM)” value in [8] is 7.11 nM.

B9: huD2H3-V12 (antibody, human IgG1, kappa, V domains shown)
VH: EVQLVQSGAEVKKPGSSVKVSCKASGYTFTNYWMHWVRQAPGQGLEWMGAIFPRNSETNYNQKFKARVTITADESTSTAYMELSSLRSEDTAVYYCTRNRYGLDYWGQGTLVTVSS
VL: DIVLTQSPDSLAVSLGERATINCRASESVSLHGTRLMHWYQQKPGQPPKLLISLGSNLESGVPDRFSGSGSETDFTLTISSLQAEDVAVYFCQQSIEDPWTFGQGTKLEIKR
notes: Humanized D2H3, human IgG1/kappa; also called huPD1-D2H3-V12
In turn, B9 gave a 50% effective concentration (EC50) in experiment [10] of 0.354 ng/mL.

B10: huD2H3-V10 (antibody, human IgG1, kappa, V domains shown)
VH: EVQLVQSGAEVKKPGSSVKVSCKSSGYTFTNYWMHWVRQAPGQGLEWIGAIFPRNSETNYNQKFKARATLTADTSTSTAYMELSSLRSEDTAVYFCTRNRYGLDYWGQGTLVTVSS
VL: DIVLTQSPDSLAVSLGERATINCRASESVSLHGTRLMHWYQQKPGQPPKLLISLGSNLESGVPDRFSGSGSGTDFTLTISSLQAEDVAVYFCQQSIEDPWTFGQGTKLEIKR
notes: as for B7
The molecule B10 gave an EC50 in experiment [9] of 0.505 ng/mL.

B11: huD2H3-V11 (antibody, human IgG1, kappa, V domains shown)
VH: EVQLVQSGAEVKKPGSSVKVSCKSSGYTFTNYWMHWVRQAPGQGLEWIGAIFPRNSETNYNQKFKARATLTADTSTSTAYMELSSLRSEDTAVYFCTRNRYGLDYWGQGTLVTVSS
VL: DIVLTQSPDSLAVSLGERATINCRASESVSLHGTRLMHWYQQKPGQPPKLLISLGSNLESGVPDRFSGSGSETDFTLTISSLQAEDVAVYYCQQSIEDPWTFGQGTKLEIKR
notes: as for B7
In the case of B11, the EC50 in experiment [9] was found to be 0.17 ng/mL.

B12: chimeric D2H3 antibody (antibody, human IgG1, kappa, V domains shown)
VH: EVQLQQSGTVLARPGASVKMSCKSSGYTFTNYWMHWVKQRPGQGLEWIGAIFPRNSETNYNQKFKAKAKLTAVTSASTAYMEVSSLTSEDSAVYFCTRNRYGLDYWGQGTSVTVSS
VL: DIVLTQSPGFLAVSLGQRATISCRASESVSLHGTRLMHWYHQKPGQPPKLLISLGSNLESGVPARFSGSGSETDFTLNIHPVEEEDAATYFCQQSIEDPWTFGGGTKLEIKR
notes: Mouse variable domains cloned in frame to human IgG1 and kappa constant regions; also called chD2H3
Turning to B12, the EC50 in experiment [10] amounted to 0.31 ng/mL; in experiment [9] it was 1.51 ng/mL; in [3] it was 0.17 nM; in experiment [11], 1.04 ng/mL; in experiment [15] it was 0.17 nM. In addition, the 50% inhibitory concentration (IC50) came out at 0.74 nM in [4], 0.19 nM in experiment [5], 0.74 nM in [12] and 0.19 nM in experiment [14]. The Kd in experiment [6] was found to be 0.441 nM; in [7] it was 1.78 nM. Further, in [13], the “Cell-based functional reporter assay (IC50, nM)” value is 5.36 nM. In addition, the “Cell-based functional assay (EC50, nM)” value in experiment [8] was 5.36 nM.
